# Results reported in the supplement of paper PMC10567573.
# B1: ZNF511 (parent)
# chain: FDALDDYEHHYHTLHGNVCSFCKR
# Variants of: B1
# Test: protein stability index of a GFP-peptide fusion (GPS, HEK-293T) (PSI 1-6); higher = more stable
# Conditions: c terminus: a fixed tail appended
# 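Also: lentivirally expressed fusions sorted by FACS into six bins by GFP to DsRed ratio, PSI derived from sequencing read proportions per bin multiplied by bin number.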
row,Variant,protein stability index
1,FDALDDYEHHYPTLHGNVCSFCKR [H12P],3.31
2,FDALDDYEHHYFTLHGNVCSFCKR [H12F],2.9
3,FDALDDYEHHYGTLHGNVCSFCKR [H12G],3.58
4,FDALDDYEHHYDTLHGNVCSFCKR [H12D],4.41
5,FDALDDYEHHYATLHGNVCSFCKR [H12A],2.96
6,FDALDDYEHHYNTLHGNVCSFCKR [H12N],3.27
7,FDALDDYEHHHHTLHGNVCSFCKR [Y11H],4.14
8,FDALDDYEHHQHTLHGNVCSFCKR [Y11Q],4.93
9,FDALDDYDHHYHTLHGNVCSFCKR [E8D],3.82
10,FDALDDYYHHYHTLHGNVCSFCKR [E8Y],2.79
11,FDALDDYPHHYHTLHGNVCSFCKR [E8P],3.81
12,FDALDDYAHHYHTLHGNVCSFCKR [E8A],3.66
13,FDALDDYEHRYHTLHGNVCSFCKR [H10R],3.59
14,FDALDDYEHSYHTLHGNVCSFCKR [H10S],3.06
15,FDALDDYEHHYHTLHGNVCSFEKR [C22E],3.2
16,FDALDDYEHHYHTLHGNVCSFAKR [C22A],3.11
17,FDALDDYEHHYHTLHGNVCSFVKR [C22V],3.04
18,FDALDDYEHHYHTLHGNVCSFGKR [C22G],2.37
19,FDSLDDYEHHYHTLHGNVCSFCKR [A3S],3.77
20,FDGLDDYEHHYHTLHGNVCSFCKR [A3G],3.96
21,FDKLDDYEHHYHTLHGNVCSFCKR [A3K],2.87
22,FDNLDDYEHHYHTLHGNVCSFCKR [A3N],3.63
23,FDFLDDYEHHYHTLHGNVCSFCKR [A3F],3.19
24,FDILDDYEHHYHTLHGNVCSFCKR [A3I],3.31

row,Variant,protein stability index
1,FDRLDDYEHHYHTLHGNVCSFCKR [A3R],3.81
2,FDALDDYEHHYHTLLGNVCSFCKR [H15L],2.6
3,FDALDDYEHHYHTLPGNVCSFCKR [H15P],3.3
4,FDALDDYEHHYHTLTGNVCSFCKR [H15T],4.48
5,FDALDDYEHHYHTLMGNVCSFCKR [H15M],3.88
6,FDALDMYEHHYHTLHGNVCSFCKR [D6M],3.03
7,FDALDFYEHHYHTLHGNVCSFCKR [D6F],2.21
8,FDALDKYEHHYHTLHGNVCSFCKR [D6K],2.97
9,FDALDPYEHHYHTLHGNVCSFCKR [D6P],3.74
10,FDALDGYEHHYHTLHGNVCSFCKR [D6G],3.69
11,FDALDRYEHHYHTLHGNVCSFCKR [D6R],3.52
12,FDALDDYEKHYHTLHGNVCSFCKR [H9K],3.43
13,FDALDDYEMHYHTLHGNVCSFCKR [H9M],3.44
14,FDALDDYEFHYHTLHGNVCSFCKR [H9F],3.03
15,FDALDDYERHYHTLHGNVCSFCKR [H9R],4.1
16,FDALDDYEYHYHTLHGNVCSFCKR [H9Y],2.65
17,FDALDDYEHHYHTLHGNVNSFCKR [C19N],3.13
18,SDALDDYEHHYHTLHGNVCSFCKR [F1S],4.51
19,ADALDDYEHHYHTLHGNVCSFCKR [F1A],4.38
20,IDALDDYEHHYHTLHGNVCSFCKR [F1I],3.43
21,CDALDDYEHHYHTLHGNVCSFCKR [F1C],4.38
22,KDALDDYEHHYHTLHGNVCSFCKR [F1K],4.28
23,DDALDDYEHHYHTLHGNVCSFCKR [F1D],4.31
24,WDALDDYEHHYHTLHGNVCSFCKR [F1W],3.7

row,Variant,protein stability index
1,FDALDDYEHHYHTLHGNVCSICKR [F21I],4.22
2,FDALDDYEHHYHTLHGNVCSQCKR [F21Q],4.56
3,FDALDDYEHHYHTLHGNVCSRCKR [F21R],4.55
4,FIALDDYEHHYHTLHGNVCSFCKR [D2I],3.62
5,FRALDDYEHHYHTLHGNVCSFCKR [D2R],3.19
6,FAALDDYEHHYHTLHGNVCSFCKR [D2A],3.4
7,FDALDDYEHHYHTLHGNVCSFCKT [R24T],3.84
8,FDALDDYEHHYHTLHGNVCSFCKD [R24D],4.06
9,FDALDDYEHHYHTLHGNVCSFCKQ [R24Q],4.25
10,FDALDDYEHHYHTLHRNVCSFCKR [G16R],3.47
11,FDALDDYEHHYHTLHANVCSFCKR [G16A],3.72
12,FDALDDYEHHYHTLHLNVCSFCKR [G16L],2.98
13,FDALDDYEHHYHTLHENVCSFCKR [G16E],3.75
14,FDALMDYEHHYHTLHGNVCSFCKR [D5M],3.14
15,FDALTDYEHHYHTLHGNVCSFCKR [D5T],3.7
16,FDALGDYEHHYHTLHGNVCSFCKR [D5G],4.12
17,FDALADYEHHYHTLHGNVCSFCKR [D5A],4.03
18,FDALDDPEHHYHTLHGNVCSFCKR [Y7P],3.97
19,FDALDDYEHHYHTLHGNVCFFCKR [S20F],3.67
20,FDALDDYEHHYHTLHGNVCIFCKR [S20I],3.83
21,FDALDDYEHHYHTLHGNVCQFCKR [S20Q],3.85
22,FDALDDYEHHYHTLHGNVCEFCKR [S20E],4.44
23,FDALDDYEHHYHTLHGNVCDFCKR [S20D],2.75
24,FDALDDYEHHYHQLHGNVCSFCKR [T13Q],3.66

row,Variant,protein stability index
1,FDALDDYEHHYHCLHGNVCSFCKR [T13C],4.5
2,FDALDDYEHHYHMLHGNVCSFCKR [T13M],3.5
3,FDALDDYEHHYHPLHGNVCSFCKR [T13P],4.19
4,FDALDDYEHHYHTLHGNWCSFCKR [V18W],2.8
5,FDALDDYEHHYHTLHGNLCSFCKR [V18L],3.83
6,FDALDDYEHHYHTLHGNDCSFCKR [V18D],4.12
7,FDALDDYEHHYHTLHGNQCSFCKR [V18Q],4.18
8,FDALDDYEHHYHTLHGNVCSFCAR [K23A],3.47
9,FDALDDYEHHYHTLHGNVCSFCLR [K23L],3.03
10,FDALDDYEHHYHTLHGNVCSFCHR [K23H],3.07
11,FDALDDYEHHYHTLHGNVCSFCER [K23E],3.97
12,FDALDDYEHHYHTIHGNVCSFCKR [L14I],3.92
13,FDALDDYEHHYHTSHGNVCSFCKR [L14S],4.08
14,FDALDDYEHHYHTQHGNVCSFCKR [L14Q],4.28
15,FDALDDYEHHYHTNHGNVCSFCKR [L14N],4.18
16,FDALDDYEHHYHTLHGPVCSFCKR [N17P],3.16
17,FDALDDYEHHYHTLHGHVCSFCKR [N17H],3.64
18,FDANDDYEHHYHTLHGNVCSFCKR [L4N],4.51
19,FDAKDDYEHHYHTLHGNVCSFCKR [L4K],4.39
20,FDACDDYEHHYHTLHGNVCSFCKR [L4C],3.94
21,FDAGDDYEHHYHTLHGNVCSFCKR [L4G],4.11
22,FDAHDDYEHHYHTLHGNVCSFCKR [L4H],4.48
